Test results taken from patent US20020155503.

Legend:
[1] = molecular target: Serine-tyrosine-phenylalanine-histamine-glutamine
[2] = molecular target: T1, Lys-Lys-Lys-Lys-Ala-Asp-Glu-Glu-Asp-Tyr-Phe-Ile-Pro-Pro-Ala
T1 chain: KKKKADEEDYFIPPA

B1: recombinant form of the human CSK enzyme (protein)
chain: MSAIQAAWPSGTECIAKYNFHGTAEQDLPFCKGDVLTIVAVTKDPNWYKAKNKVGREGIIPANYVQKREGVKAGTKLSLMPWFHGKITREQAERLLYPPETGLFLVRESTNYPGDYTLCVSCDGKVEHYRIMYHASKLSIDEEVYFENLMQLVEHYTSDADGLCTRLIKPKVMEGTVAAQDEFYRSGWALNMKELKLLQTIGKGEFGDVMLGDYRGNKVAVKCIKNDATAQAFLAEASVMTQLRHSNLVQLLGVIVEEKGGLYIVTEYMAKGSLVDYLRSRGRSVLGGDCLLKFSLDVCEAMEYLEGNNFVHRDLAARNVLVSEDNVAKVSDFGLTKEASSTQDTGKLPVKWTAPEALREKKFSTKSDVWSFGILLWEIYSFGRVPYPRIPLKDVVPRVEKGYKMDAPDGCPPAVYEVMKNCWHLDAAMRPSFLQLREQLEHIKTHELHL
phosphorylation of library peptide, anti-phosphotyrosine ELISA (absorbance at 450 nm); preferred substrate of the sub-set (Asp-Glu-Glu-Glu-Tyr): Library Sub-Set 1 Asp-Glu-Glu-Glu-Tyr [SEQ ID No. 16]
phosphorylation of library peptide, anti-phosphotyrosine ELISA (absorbance at 450 nm); preferred substrate of the sub-set (Asp-Glu-Glu-Tyr-Phe): Library Sub-Set 2 Asp-Glu-Glu-Tyr-Phe [SEQ ID No. 17]
phosphorylation of library peptide, anti-phosphotyrosine ELISA (absorbance at 450 nm); preferred substrate of the sub-set (Tyr-Pro-Ile-Glu-Val): Library Sub-Set 5 Tyr-Pro-Ile-Glu-Val [SEQ ID No. 20]
phosphorylation of library peptide, anti-phosphotyrosine ELISA (absorbance at 450 nm); preferred substrate of the sub-set (Asp-Glu-Tyr-His-Asn): Library Sub-Set 3 Asp-Glu-Tyr-His-Asn [SEQ ID No. 18]
phosphorylation of library peptide, anti-phosphotyrosine ELISA (absorbance at 450 nm); preferred substrate of the sub-set (Asp-Tyr-His-Leu-Phe): Library Sub-Set 4 Asp-Tyr-His-Leu-Phe [SEQ ID No. 19]

B2: recombinant form of the Abelson murine leukaemia virus protein tyrosine kinase v-Abl (protein)
chain: YITPVNSLEKHSWYHGPVSRNAAEYLLSSGINGSFLVRESESSPGQRSISLRYEGRVYHYRINTASDGKLYVSSESRFNTLAELVHHHSTVADGLITTLHYPAPKRNKPTIYGVSPNYDKWEMERTDITMKHKLGGGQYGEVYEGVWKKYSLTVAVKTLKEDTMEVEEFLKEAAVMKEIKHPNLVQLLGVCTREPPFYIITEFMTYGNLLDYLRECNRQEVSAVVLLYMATQISSAMEYLEKKNFIHRDLAARNCLVGENHLVKVADFGLSRLMTGDTYTAHAGAKFPIKWTAPESLAYNKFSIKSDVWAFGVLLWEIATYGMSPYPGIDLSQVYELLEKDYRMERPEGCPEKVYELMRACWQWNPSDRPSFAEIHQAFETMFQESSISDEVEKELGKRG
phosphorylation of library peptide, anti-phosphotyrosine ELISA (absorbance at 450 nm); preferred substrate of Library Sub-Set 4 [1]: The active site substrate recognition substrate for this enzyme for this Sub-Set was Serine-tyrosine-phenylalanine-histamine-glutamine [SEQ ID No. 21]

B3: catalytic domain of human ZAP-70 (amino acid 306-615), recombinant, from baculovirus-infected Sf9 cells (protein)
chain: RPMPMDTSVYESPYSDPEELKDKKLFLKRDNLLIADIELGCGNFGSVRQGVYRMRKKQIDVAIKVLKQGTEKADTEEMMREAQIMHQLDNPYIVRLIGVCQAEALMLVMEMAGGGPLHKFLVGKREEIPVSNVAELLHQVSMGMKYLEEKNFVHRDLAARNVLLVNRHYAKISDFGLSKALGADDSYYTARSAGKWPLKWYAPECINFRKFSSRSDVWSYGVTMWEALSYGQKPYKKMKGPEVMAFIEQGKRMECPPECPPELYALMSDCWIYKWEDRPDFLTVEQRMRACYYSLASKVEGPPGSTQKAE
Km (33P-γ-ATP phosphorylation of the biotin peptide, streptavidin filter plate capture) (Biotin-εAHA-DEEDYFE(Nle)): 15.79 µM
protein kinase activity against the peptide substrate (column fractions) [2]: ZAP-70 fractions identified by protein kinase activity against the peptide substrate Lys-Lys-Lys-Lys-Ala-Asp-Glu-Glu-Asp-Tyr-Phe-Ile-Pro-Pro-Ala
